Source: patent US20230287087A1 (MAX PLANCK GESELLSCHAFT ZUR F RDERUNG DER WISSENSCHAFTEN E V, published 2023)
“And” between values parts separate entries of the source, which are not always exact repeats. Equal entries are not always repeated.

Assays:
[1] = target: T1, Spike protein of patient-derived SARS-CoV-2 (D614G) (SARS-CoV-2, UniProt P0DTC2 14-1273); test: cell-based or functional assay
[2] = target: T1, Spike protein of patient-derived …; test: cell-based or functional assay; remark: listed apart in the source
[3] = target: T2, SARS-CoV-2 spike receptor-binding domain (RBD), wild type (SARS-CoV-2, UniProt P0DTC2 319-541); test: BLI, biotinylated VHH on streptavidin sensor, RBD in solution
[4] = target: T3, B.1.617.2/Delta RBD (40592-V08H90, Sino Biologicals) (SARS-CoV-2, UniProt P0DTC2 319-541); test: as above
[5] = target: quadruple (K417T, L452R, E484K, N501Y) RBD mutant (SARS-CoV-2, UniProt P0DTC2 319-541); test: method not stated
[6] = target: T2, SARS-CoV-2 spike receptor-binding …; test: BLI, biotinylated VHH heterodimer on streptavidin sensor, RBD in solution
[7] = target: T3, B.1.617.2/Delta RBD (40592-V08H90, Sino …); test: as above
[8] = target: T1, Spike protein of patient-derived …; test: cell-based or functional assay; remark: listed apart in the source
[9] = target: Californian RBD mutant (L452R) (SARS-CoV-2, UniProt P0DTC2 319-541); test: method not stated
[10] = target: T2, SARS-CoV-2 spike receptor-binding …; test: method not stated

B1: Re6A11 (VHH)
VHH: QVQLVESGGGLVQAGGSLRLSCAASGRTFSNDALGWFRQAPRKEREFVAAINWNSGTYYADSVKGRFTISRDNAKNTVYLQMNSLKPEDTAVYSCAAASDYGLPREDFLYDYWGQGTLVTVSS
Lowest neutralizing VHH concentration [1]: 50000 pM and 750 µg/liter

B2: Re6A11/Re9F06 ColXVIII trimer (VHH)
VHH: QVQLVESGGGLVQAGGSLRLSCAASGRTFSNDALGWFRQAPRKEREFVAAINWNSGTYYADSVKGRFTISRDNAKNTVYLQMNSLKPEDTAVYSCAAASDYGLPREDFLYDYWGQGTLVTVSS
Lowest neutralizing VHH concentration [1]: 170 pM and 4 µg/liter

B3: Re9F06 (VHH)
VHH: QVQLVESGGGLVQAGGSLRLSCAASGRTFSNDALGWFRQAPRKEREFVAAINWNSGTYYADSVKGRFTISRDNAKNTVYLQMNSLKPEDTAVYSCAAASDYGLPREDFLYDYWGQGTQVTVSS
Lowest SARS-COV-2-neutralizing concentration [2]: 50000 pM

B4: Re9B09 (VHH)
VHH: QVQLVESGGGLVQPGGSLRLSCAASGFTLDYYAIGWFRQAPGKEREGVSRISSSDGSTDYADSVKGRFTISRDNAKNTVYLQMNSLKPEDTAVYYCATVPGTYYSGNWYYTWHPEAVDYWGKGTQVTVSS
Kd [3]: ≤ 0.01 nM | Kd [4]: 0.1 nM | Lowest SARS-COV-2-neutralizing concentration [2]: 170 pM

B5: Re9H03 (VHH)
VHH: QVQLVESGGGLVQPGGSLRLSCAASGFTLDYYAIGWFRQAPGKEREGVSRISSSDGSTDYADSVKGRFTISRDNAKNTVYLQMNSLKPEDTAVYYCATVPGTYYSGNWYYTWHPKAVDYWGKGTLVTVSS
fold better binding than Re9B09 [5]: 100 fold | Lowest SARS-COV-2-neutralizing concentration [2]: 170 pM

B6: Re9F06-SpacerA-Re9B09 (bispecific antibody)
chain: GSQVQLVESGGGLVQAGGSLRLSCAASGRTFSNDALGWFRQAPRKEREFVAAINWNSGTYYADSVKGRFTISRDNAKNTVYLQMNSLKPEDTAVYSCAAASDYGLPREDFLYDYWGQGTQVTVSSTSGEGEGGEGGEGSQVQLVESGGGLVQPGGSLRLSCAASGFTLDYYAIGWFRQAPGKEREGVSRISSSDGSTDYADSVKGRFTISRDNAKNTVYLQMNSLKPEDTAVYYCATVPGTYYSGNWYYTWHPEAVDYWGKGTQVTVSSTS
Kd [6]: ≤ 0.01 nM | Kd [7]: ≤ 0.01 nM

B7: Re6B06 (VHH)
VHH: QVQLVESGGGLVQAGGSLRLSCAASGRAFSSAPMSWFRQAPGKEREFVASVSWSGDSTNYADSVKGRFTISRDNAKNTGYLQMNSLKPEDTAVYYCKRGPYWGQGTQVTVSS
viral RNA in supernatants of infected cells (qRT-PCR), fold inhibition [8]: ~300 fold | Lowest SARS-COV-2-neutralizing concentration [2]: 170000 pM | Lowest neutralizing VHH concentration [1]: 50000 pM and 750 µg/liter

B8: Re7H02 (VHH)
VHH: QVQLVESGGGLVQAGGSLRLSCAASGRAFESAPMSWFRQAPGKEREFVASVSWSGDSTNYADSVKGRFTISRDNAENTGYLQMNSLKPEDTAVYYCKRGPYWGQGTQVTVSS
Lowest SARS-COV-2-neutralizing concentration [2]: 17000 pM | Lowest neutralizing VHH concentration [1]: 17000 pM and 250 µg/liter

B9: Re9C08 (VHH)
VHH: QVQLVESGGGLVQPGGSLRLSCAVSGNIFGITAWDWHRQAPGKQRELVAHITSRGDTYYLDSVKGRFAISRDHAKNTLSLQMNSLKPEDTAVYYCYLRTFGPPNDHWGQGTQVTVSS
Lowest SARS-COV-2-neutralizing concentration [2]: 500 pM

B10: Re5D06R15 (VHH)
VHH: QVQLVESGGGLVQPGGSLRLSCAASGITLDYYAMGWFREAPGKEREGVARIRNSDGSTNYADSVKGRFTMSRDNAKDTYYLQMNSLEPEDTADYYCAYGPLTKYGSSWYWPYEYDYWGQGTQVTVSS
Kd [3]: ≤ 0.01 nM | Kd [4]: 0.03 nM

B11: Re5D06R28 (VHH)
VHH: QVQLVESGGGLVQPGGSLRLSCAISGSTLDYYAMGWFREAPGKEREGVARWRNNDGSTNYADSVKGRFTMSRDNAKDTYYLQMNSLEPEDTADYYCAYGPLTKYGSSWHWPYEYDYWGQGTQVTVSS
Kd [3]: ≤ 0.01 nM | Kd [4]: 0.08 nM

B12: Re9H01 (VHH)
VHH: QVQLVESGGGLVQAGDSLRLSCAASGNIFSINAMGWYRQAPGKQRELVAFITSRGSTNYTDSVKGRFTISRDTAKDTVYLQMNSLKPEDTAVYFCRGGYSDYDIYFGSWGQGTQVTVSS
Lowest SARS-COV-2-neutralizing concentration [2]: 170 pM

B13: Re7E02 (VHH)
VHH: QVQLVESGGGLVQAGGSLRLSCAASGFTLDYYAIGWFRQAPGKEREGVSYIRSSDGTTYYADSVKGRFTISRDNAKNTVYLQMNSLKPEDTAVYYCAADEAYYSELGWESPWGWSYWGQGTQVTVSS
Lowest SARS-COV-2-neutralizing concentration [2]: 500 pM

B14: Re5A08 (VHH)
VHH: QVQLVESGGGLVQAGGSLRLSCTASGHTFTANRMGWFRQAPGKEREFVAAINWGGDSTNYVDSVKGRFTISRDIAKNTVYLQMNSLKPEDTAVYFCAARNHVTGEFDSWGQGTQVTVSS
Lowest neutralizing VHH concentration [1]: 5000 pM and 75 µg/liter

B15: Re6D06 (VHH)
VHH: QVQLVESGGGLVQAGASLRLSCAASGRMFGVYRMGWFRQAPGKEREFVAGISTSVGTTNYADSVKGRFTISRDNAKNTVYLQMNSLKPEDTAVYYCAARDPTTYEYDYWGQGTQVTVSS
Lowest SARS-COV-2-neutralizing concentration [2]: 500 pM | Lowest neutralizing VHH concentration [1]: 1700 pM and 25 µg/liter

B16: Re9B10 (VHH)
VHH: QVQLVESGGGLVQPGGSLRLSCAASGRMFGVYRMGWFRQAPGKEREFVAGISTSVGTTNYADSVKGRFTISRDNAKNTVYLQMNSLKPEDTAVYYCAARDPTTYEYDYWGQGTQVTVSS
Lowest SARS-COV-2-neutralizing concentration [2]: 500 pM

B17: Re10B10 (VHH)
VHH: QVQLVESGGGLVQPGGSLRLSCAASGFTLDYYAIGWFRQAPGKEREGVSRIRSSDGSTTYADSVKGRFTISRDNAKNTVYLQMNSLKPEDTAVYYCAYGPLTKYGSSWYWPYEYDYWGQGTQVTVSS
Lowest SARS-COV-2-neutralizing concentration [2]: 50 pM

B18: Re5D06 (VHH)
VHH: QVQLVESGGGLVQPGGSLRLSCAASGITLDYYAIGWFRQAPGKEREGVSRIRSSDGSTNYADSVKGRFTMSRDNAKNTVYLQMNSLKPEDTAVYYCAYGPLTKYGSSWYWPYEYDYWGQGTQVTVSS
Kd [9]: ~0.4 nM

B19: Re7B01 (VHH)
VHH: QVQLVESGGGLVQPGGSLRLSCGASGFTLDYYAIGWFRQAPGKEREGVSRIRSNDGSTDYADSVKGRFTISRDNAKNTVYLQMNSLKPEDTAVYYCAYGPLTKYGSSWYWPYEYDYWGQGTQVTVSS
Lowest SARS-COV-2-neutralizing concentration [2]: 50 pM

B20: Re10F10 (VHH)
VHH: QVQLVESGGGLVQPGGSLRLSCAASGFTLDYYAIGWFRQAPGKEREGVSRIRNNDGSTDYADSVKGRFTISRDNAKNTVYLQMNSLKPEDTAVYYCAYGPLTKYGSSWYWPYEYDYWGQGTQVTVSS
Lowest SARS-COV-2-neutralizing concentration [2]: 50 pM

B21: Re6B02 (VHH)
VHH: QVQLVESGGALVQPGGSLRLSCVASGFTLDYYAIGWFRQAPGKEREGVSRIRSSDGSTNYADSVKGRFTISRDNAKNTVYLQMNSLKPEDTAVYYCAYGPLTKYGSSWYWPYEYDYWGQGTQVTVSS
Lowest SARS-COV-2-neutralizing concentration [2]: 50 pM

B22: Re5F10 (VHH)
VHH: QVQLVESGGGLVQPGGSLRLSCVASGFTFSSFAMGWYRQAPGKECEWVATITITGGSTNYADSVKGRFTISRDNAKNTVYLQMNSLKPEDTAVYYCNPDPGCRRGQGTQVTVSS
Kd [3]: 0.04 nM | Kd [4]: 0.04 nM | Kd [10]: 0.03 nM | Kd [5]: 0.03 nM | Lowest SARS-COV-2-neutralizing concentration [2]: 1700 pM

B23: Re9F06-SpacerA-Re5D06R28D (bispecific antibody)
chain: GSQVQLVESGGGLVQAGGSLRLSCAASGRTFSNDALGWFRQAPRKEREFVAAINWNSGTYYADSVKGRFTISRDNAKNTVYLQMNSLKPEDTAVYSCAAASDYGLPREDFLYDYWGQGTQVTVSSTSGEGEGGEGGEGSQVQLVESGGGLVQPGGSLRLSCAISGSTLDYYAMGWFREAPGKEREGVARWRNNDGSTNYADSVKGRFTMSRDNAKDTYYLQMNSLEPEDTADYYCAYGPLTKYGDEWHWPYEYDYWGQGTQVTVSSTS
Kd [6]: ≤ 0.01 nM | Kd [7]: ≤ 0.01 nM
